Reference: the supplement of paper PMC9170038

Tested on: MS2 coat protein
Test: apparent KD of MS2 coat protein; higher = weaker reporter binding
Details: Eterna round: R107
Experimental: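 RNA-MaP round R107: designed RNA switches with theophylline, tryptophan, arginine or FMN aptamers are transcribed on-chip within common flanks. They are titrated with SNAP-549-labelled MS2 coat protein in RNA-MaP buffer (100 mM Tris pH 7.5, 80 mM KCl, 4 mM MgCl2), without ligand or with the indicated ligand. Median apparent KD per design.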

[1] = input ligand: theophylline 20 uM
[2] = input ligand: tryptophan 2.4 mM
[3] = input ligand: theophylline 2 mM

Sequence	apparent KD of MS2 coat protein (input ligand: arginine 13.2 mM)	apparent KD of MS2 coat protein [1]	apparent KD of MS2 coat protein [2]	apparent KD of MS2 coat protein [3]	apparent KD of MS2 coat protein (input ligand: none)
ACGUCAACCCUUAUGUUGAUGCAAGACGAUACCAGCCUGGAUACAGGCCCUUGGCAGCGUCAACAUGAGGAUCACCCAUGUAAUA [(T)''-(MT)'-(Theo)-(Ms2)]	32.2 nM	261 nM	45.3 nM	–	–
ACGUUCGCGGUAUCCAACCGGUUGUACAAACGAGGACCGGUACGGCCGCCACUCGUGAUUGUACAUGAGGAUCACCCAUGUGGCA [theeternabot_exclusion_MS2_Trp_A_28]	18.7 nM	34.1 nM	–	28.1 nM	–
ACUAGUUGUGCAGAUACCAGAUAUGAGGAUCACCCAUAUUUGGGAUGUUCGCAUCUUCCUGUCCCUUGGCAGCUGUACAUCUAGA [Omei Theo B Exc v7]	37.9 nM	86.7 nM	33.9 nM	107 nM	37.3 nM
ACUUGAUACUGAAGGAGCGUCGGAUAAACUCGCACAUGAGGAUCACCCAUGUAUAUGAAUCGGCAGGUAGGUCGCAGUAUCGAGU [#21 Same State - Arginine B]	14.8 nM	20.4 nM	15.4 nM	17.1 nM	15.6 nM
AGAAAGAAACAAAACUCAAGGAGAACCGAAGGAGCGGCGAAAGAGCCAGGUAGGUCGCGGUCCUCAACAUGAGGAUCACCCAUGU	61.6 nM	83.5 nM	96.6 nM	186 nM	104 nM
AGAACAAAACUAAAUAAACAACUGGGUGAUACCAGCACAUGUGCGUGCCCUUGGCAGCAUCCGGCCACAUGAGGAUCACCCAUGU [Inarar]	42.6 nM	95.6 nM	62.7 nM	–	–
AGACAUGAGGAUCACCCAUGUAGCAUGGAUACCAGAUGCAGAUUUAUCCCUUGGCAGCUGUGGUAAAGUGAUGCAUUGCUCCUAG [Exclusion - Theophylline A (Freestyle 6)]	18.8 nM	31 nM	23.8 nM	27.1 nM	22.6 nM
AGACAUGAGGAUCACCCAUGUAGUAUGGAUACCAGAUCCAGAUUUAUCCCUUGGCAGCUGUGGUACAGCGAUGGAUUGCUCCUAG [Exclusion - Theophylline A (Freestyle 10)]	33.5 nM	48.5 nM	39.2 nM	–	–
AGACGAGCAAUCAACGGGCGUUUCGUGACGCGAGGACCGGUACGGCCGCCACUCGAGUCUGGACAUGAGGAUCACCCAUGUUAUG [theeternabot_exclusion_MS2_Trp_A_46]	32.8 nM	23 nM	22.2 nM	41 nM	22 nM
AGACUUCGCAUAGGAAAACUAUGUGAAGUCCGAGGACCGGUACGGCCGCCACUCGUCCUCACAUGAGGAUCACCCAUGUAAAUAA [#OpenEnded 2 #CuTurnoff #Tail]	22.7 nM	–	–	24.5 nM	–
AGAGCAUUGACGGCCGCCACUCAUGUCACAUGAGGAUCACCCAUGUGAUGGGUGAUAGCCCGGUCGAGGACCGGGUCAAUGCUCA [Omei Tryp SS B v5]	14.3 nM	29.7 nM	–	20.6 nM	–
AGAGUCUAGUCGGCCGCCACUCAUGUCCGAAGGACAUGAGGAUCACCCAUGUACCAAUGGUACAUGAGGACCGGGACUGGACUCA [Omei Tryp B SS C v3]	34.5 nM	98.3 nM	7.34 nM	559 nM	39.9 nM
AGCACUGUGACGGCCGCCACUAUAUUAGGGUGGUAAGGUUCAUAAAUACAUGAGGAUCACCCAUGUAGGACCGGGUCUCAGUGCA [Omei Trp Exc B A v2]	11.8 nM	11 nM	17.1 nM	13.5 nM	12.6 nM
AGCCCGGGAGCGGCCGCCACUGGAGGCUGAGCGCGACAUGAGGAUCACCCAUGUGUGCCCGGCGUUAGGACCGGGCUCGCGUGGU [#1 Same State - Tryptophan B Attempt #23 (HarryS)]	28.4 nM	75 nM	32.2 nM	79.2 nM	29.4 nM
AGCGACAUGCGUGAUACCAGCUACAUGAGGAUCACCCAUGUGAGUAGGAAACUACUGUGUAGCCCUUGGCAGCACAGUGCAUGUC [Exclusion - Theophylline B (Freestyle 25)]	11.4 nM	15.9 nM	10.3 nM	–	–
AGCGGCUCGAAAGAGUCGCACUCAUGUGAAGGAGCGCCCGUAAGGGCAGGUAGGUCGCACAUGAGGAUCACCCAUGUACCUUCUA [MAT - Exclusion Arginine A - Mod of Eli - D20]	87.1 nM	255 nM	241 nM	316 nM	205 nM
AGCUCGCAUCCUCAAAGCGUCAAAGACGCACGAGGACCGGUACGGCCGCCACUCGACCUGAGGAUCACCCUGGUCUAAGCGAGCA [TrypAX 9 #SwitchBubble #AlternativeMS2 #MS2Late #CuTurnoff]	29.7 nM	49.2 nM	381 nM	48.8 nM	36.2 nM

Sequence	apparent KD of MS2 coat protein (input ligand: arginine 13.2 mM)	apparent KD of MS2 coat protein [1]	apparent KD of MS2 coat protein [2]	apparent KD of MS2 coat protein [3]	apparent KD of MS2 coat protein (input ligand: none)
AGCUCGCAUCCUCAAGCGUCAAAGACGCGUCGAGGACCGGUACGGCCGCCACUCGACAAGAGGAUCACCCUUGUCUAAGCGAGCA [TrypAX 4 #SwitchBubble #AlternativeMS2 #MS2Late #CuTurnoff]	73.3 nM	182 nM	254 nM	264 nM	195 nM
AGUCUAUGGAGAGAUACCAGUGAGAGCCAUAGACAUGAGGAUCACCCAUGUGACAUGGAUCACCCUUGGCAGCUCAACGAGCUCU [#20 Same State - Theophylline B]	41 nM	106 nM	87.1 nM	–	–
AGUUCCAGGUCGGCCGCCACUGGCGUGGCCGGUCCUCGGACUUACAUGAGGAUCACCCAUGUGAACAGGACCGGGACCGCAUGGG [Exclusion Tryptophan B GF 25]	30 nM	46 nM	–	48.4 nM	–
AUAAAAGGGUUAUAUAGAUUUAGGUCCAGUCGAGGACCGGUACGGCCGCCACUCGUACUGAAAUACAUGAGGAUCACCCAUGUUA [JR_SSTryptoA_Sub006]	16.4 nM	25.8 nM	–	22.9 nM	–
AUAACAUGAGGAUCACCCAUGUAAGCUGAAGGAGCGGACGAAAGUCCAGGUAGGUCGCAGCACUCCUUCAACAUGGGAGAGGGAG [(M1)-(M2)-(Arg1)-(Arg2)-(A)'-(M)'-(A)''_Design1]	39.9 nM	59.8 nM	53.2 nM	72.5 nM	64.2 nM
AUAACAUGAGGAUCACCCAUGUAGAGUGAUACCAGACUACGUAAUGUCCCUUGGCAGCACAAGUAAAGUUACGAAUAUUGAUAGA [JR_SSTheophyA_Sub003]	123 nM	198 nM	143 nM	–	–
AUAAGUAAUGUUACGUGUUUAAUUGCAGAUACCAGACUAUACGUUGUCCCUUGGCAGCUGAAUUACAUGAGGAUCACCCAUGUUG [JR_ExcTheophyA_Sub005]	19.4 nM	28.5 nM	25.7 nM	–	–
AUAAUGGGUAUCGGAUUAUCAUGAUAUGAUACCAGAUACUUAGAUAUCCCUUGGCAGCAUGAGGACAUGAGGAUCACCCAUGUAU [#04 Exclusion-TheophyllineA]	32.1 nM	50.3 nM	39.9 nM	–	–
AUACAUGAGGAUCACCCAUGUAUGGAUGAAGGAGCGACCAGAGGGUCAGGUAGGUCGCAUCACAUGAGGAUCACCCAUGUAGAAA [DOUBLE!!! :-D #11]	20.3 nM	25.2 nM	24 nM	26.1 nM	23.4 nM
AUACAUGAGGAUCACCCAUGUCAUUCAGAAGGAGCGUCAUUUUAGACAGGUAGGUCGCUGUUAUUGGUAUUAUACUUUAUGUUUA [JR_ExcArginiA_Sub024]	20.1 nM	34.9 nM	28.9 nM	24.7 nM	22.9 nM
AUACCUAUUGAGUCGUGUUUCUAUUCAGAUACCAGACUUUUCGUUGUCCCUUGGCAGCUGUUUUACAUGAGGAUCACCCAUGUUG [JR_ExcTheophyA_Sub006]	14.6 nM	18.3 nM	15 nM	–	–
AUCCUUAAUAGGGUAAAUGGAUAAAGUGAUACCAGUCAAAUACAAGACCCUUGGCAGCACAAGGACAUGAGGAUCACCCAUGUCA [Same State Theophylline A GF21]	20.9 nM	22 nM	21.6 nM	–	–
AUCGUACCUCAUGAUACCAGCAUGUGAUCAUAACAUGAGGAUCACCCAUGUAAUCAGUGAUGCCCUUGGCAGCGUAGUCGAUACA [Same State - Theophylline B (Freestyle 8)]	76.3 nM	161 nM	123 nM	–	–
AUCGUACCUGAGGAUACCAGCAUGUGAUCAUAACAUGAGGAUCACCCAUGUAAUCAGUGAUGCCCUUGGCAGCUUGAUCGGUACA [Same State - Theophylline B (Freestyle 11)]	53.4 nM	83.6 nM	63.8 nM	–	–
AUCGUACCUGAUGAUACCAGCAAUUGCUCGUGACAUGAGGAUCACCCAUGUGACCAGUGAUGCCCUUGGCAGCAUGGUCGGUGCA [Same State - Theophylline B (Freestyle 22)]	42.8 nM	79.3 nM	69.5 nM	–	–
AUGACUAACAAAGAAGAUAAAAUGGGUGAACGAGGACCGGUACGGCCGCCACUCGGACAUGAGGAUCACCCAUGUCCAUGUGCAA [#23 Exclusion Tryptophan A]	15.6 nM	21.7 nM	–	20.4 nM	–
